Source: patent publication US20190330321A1 (UCB, published 2019)

Experiments:
Test in all cases: cell-based or functional assay
[1] = molecular target: endogenously produced TGF-beta (isoform not given)
mature human TGF-beta 1 = mature human TGF-beta 1 (human, UniProt P01137 279-390)
mature human TGF-beta 2 = molecular target: T1, mature human TGF-beta 2 (human, UniProt P61812 303-414)
T1 sequence: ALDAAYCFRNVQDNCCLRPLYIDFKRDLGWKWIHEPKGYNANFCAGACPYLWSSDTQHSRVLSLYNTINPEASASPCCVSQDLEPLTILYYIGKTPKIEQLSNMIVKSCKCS

mature human TGF-beta 3 = molecular target: T2, mature human TGF-beta 3 (human, UniProt P10600 301-412)
T2 sequence: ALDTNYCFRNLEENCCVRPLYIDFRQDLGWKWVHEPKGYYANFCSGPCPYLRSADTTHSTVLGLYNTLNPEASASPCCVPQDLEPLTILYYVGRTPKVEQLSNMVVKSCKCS

Sequence of mature human TGF-beta 1 (P01137 279-390 limits assumed): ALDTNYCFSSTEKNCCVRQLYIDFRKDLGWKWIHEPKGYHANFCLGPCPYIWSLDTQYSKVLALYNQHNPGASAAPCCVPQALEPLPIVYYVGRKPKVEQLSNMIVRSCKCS

B1: antibody 4856 gL3gH13 Fab (humanised) (Fab)
heavy: EVQLVESGGGLVKPGGSLRLSCAASGFSLSSYDMSWVRQAPGKGLEWIGIIYGGSGSTWYASWAKGRFTISRDSAKNSVYLQMNSLRAEDTAVYYCARGRDAGAGGSRNGYSLWGQGTLVTVSSASTKGPSVFPLAPSSKSTSGGTAALGCLVKDYFPEPVTVSWNSGALTSGVHTFPAVLQSSGLYSLSSVVTVPSSSLGTQTYICNVNHKPSNTKVDKKVEPKSC
light: AYDMTQSPSTLSASVGDRVTITCQASESIYSGLAWYQQKPGKAPKLLIYAASDLASGVPSRFSGSGSGTEYTLTISSLQPDDFATYYCQQTWTDGGIDNPFGGGTKVEIKRTVAAPSVFIFPPSDEQLKSGTASVVCLLNNFYPREAKVQWKVDNALQSGNSQESVTEQDSKDSTYSLSSTLTLSKADYEKHKVYACEVTHQGLSSPVTKSFNRGEC
Q: What does the source list for B1?
A: IC50, Collagen I&III deposition, RPTEC and HRF co-culture, N = 1 [1]: 22.4 nM; IC50, Collagen I&III deposition, RPTEC and HRF co-culture, N = 2 [1]: 48 nM; IC50, Collagen V deposition, RPTEC and HRF co-culture, N = 1 [1]: 38.9 nM; IC50, Collagen V deposition, RPTEC and HRF co-culture, N = 2 [1]: 81.6 nM; IC50, Fibronectin deposition, RPTEC and HRF co-culture, N = 1 [1]: 32.6 nM; IC50, Fibronectin deposition, RPTEC and HRF co-culture, N = 2 [1]: 27.1 nM; IC50 Geo Mean, Collagen I&III deposition, RPTEC and HRF co-culture [1]: 32.8 nM; IC50 Geo Mean, Collagen V deposition, RPTEC and HRF co-culture [1]: 56.3 nM; IC50 Geo Mean, Fibronectin deposition, RPTEC and HRF co-culture [1]: 29.7 nM; IC50 geometric mean, BxPC3 and HEK-Blue TGF-beta co-culture assay [1]: 3.95 nM

B2: antibody 4856 gL3gH23 Fab (humanised) (Fab)
heavy: EVQLVESGGGLVKPGGSLRLSCAASGFSLSSYDMSWVRQAPGKGLEWIGIIYGGSGSTWYASWAKGRFTISRDSAKNSVYLQMNSLRAEDTAVYYCARGRDAGAGGSRNAYSLWGQGTLVTVSSASTKGPSVFPLAPSSKSTSGGTAALGCLVKDYFPEPVTVSWNSGALTSGVHTFPAVLQSSGLYSLSSVVTVPSSSLGTQTYICNVNHKPSNTKVDKKVEPKSC
light: AYDMTQSPSTLSASVGDRVTITCQASESIYSGLAWYQQKPGKAPKLLIYAASDLASGVPSRFSGSGSGTEYTLTISSLQPDDFATYYCQQTWTDGGIDNPFGGGTKVEIKRTVAAPSVFIFPPSDEQLKSGTASVVCLLNNFYPREAKVQWKVDNALQSGNSQESVTEQDSKDSTYSLSSTLTLSKADYEKHKVYACEVTHQGLSSPVTKSFNRGEC
Q: For B2, which IC50 geometric mean, BxPC3 and HEK-Blue TGF-beta co-culture assay [1] is on record?
A: The IC50 geometric mean, BxPC3 and HEK-Blue TGF-beta co-culture assay was 9.1 nM.

B3: antibody 4856 gL3gH29 Fab (humanised) (Fab)
heavy: EVQLVESGGGLVKPGGSLRLSCAASGFSLSSYDMSWVRQAPGKGLEWIGIIYGGSGSTWYASWAKGRFTISRDSAKNSVYLQMNSLRAEDTAVYYCARGRDAGAGGSRDGYSLWGQGTLVTVSSASTKGPSVFPLAPSSKSTSGGTAALGCLVKDYFPEPVTVSWNSGALTSGVHTFPAVLQSSGLYSLSSVVTVPSSSLGTQTYICNVNHKPSNTKVDKKVEPKSC
light: AYDMTQSPSTLSASVGDRVTITCQASESIYSGLAWYQQKPGKAPKLLIYAASDLASGVPSRFSGSGSGTEYTLTISSLQPDDFATYYCQQTWTDGGIDNPFGGGTKVEIKRTVAAPSVFIFPPSDEQLKSGTASVVCLLNNFYPREAKVQWKVDNALQSGNSQESVTEQDSKDSTYSLSSTLTLSKADYEKHKVYACEVTHQGLSSPVTKSFNRGEC
Q: Which IC50 geometric mean, BxPC3 and HEK-Blue TGF-beta co-culture assay [1] does the source give for B3 here?
A: Its IC50 geometric mean, BxPC3 and HEK-Blue TGF-beta co-culture assay is 3.77 nM.

B4: antibody 4856 gL3gH20 Fab (humanised) (Fab)
heavy: EVQLVESGGGLVKPGGSLRLSCAASGFSLSSYDMSWVRQAPGKGLEWISIIYGGSGSTWYASWAKGRFTMSKDSAKNSVYLQMNSLRAEDTAVYYCARGRDAGAGGSRNGYSLWGQGTLVTVSSASTKGPSVFPLAPSSKSTSGGTAALGCLVKDYFPEPVTVSWNSGALTSGVHTFPAVLQSSGLYSLSSVVTVPSSSLGTQTYICNVNHKPSNTKVDKKVEPKSC
light: AYDMTQSPSTLSASVGDRVTITCQASESIYSGLAWYQQKPGKAPKLLIYAASDLASGVPSRFSGSGSGTEYTLTISSLQPDDFATYYCQQTWTDGGIDNPFGGGTKVEIKRTVAAPSVFIFPPSDEQLKSGTASVVCLLNNFYPREAKVQWKVDNALQSGNSQESVTEQDSKDSTYSLSSTLTLSKADYEKHKVYACEVTHQGLSSPVTKSFNRGEC
Q: For B4, which IC50 geometric mean, BxPC3 and HEK-Blue TGF-beta co-culture assay [1] is on record?
A: The IC50 geometric mean, BxPC3 and HEK-Blue TGF-beta co-culture assay was 4.63 nM.

B5: 4856 rabbit Fab (Fab)
heavy: QSLEESGGRLVTPGTPLTLTCTASGFSLSSYDMSWVRQAPGKGLEWIGIIYGGSGSTWYASWAKGRFTMSKTSTTVDLKITSPTTEDMATYFCARGRDGGAGGSRNGYSLWGQGTLVTVSSGQPKAPSVFPLAPCCGDTPSSTVTLGCLVKGYLPEPVTVTWNSGTLTNGVRTFPSVRQSSGLYSLSSVVSVTSSSQPVTCNVAHPATNTKVDKTV
light: AYDMTQTPASVEVAVGGTVTIKCQASESIYSGLAWYQQTPGQRPKLLIYAASDLASGVPSRFKGSGSGTEYTLTISGVECADAATYYCQQTWTDGGIDNPFGGGTEVVVKRTPVAPTVLIFPPAADQVATGTVTIVCVANKYFPDVTVTWEVDGTTQTTGIENSKTPQNSADCTYNLSSTLTLTSTQYNSHKEYTCKVTQGTTSVVQSFNRGDC
Q: For B5, which Geomean IC50, BxPC3-HEK-Blue TGF-beta reporter gene co-culture assay [1] is on record?
A: The Geomean IC50, BxPC3-HEK-Blue TGF-beta reporter gene co-culture assay was 3.7 nM.

B6: 4856 rabbit Fab (Fab, V domains shown)
VH: QSLEESGGRLVTPGTPLTLTCTASGFSLSSYDMSWVRQAPGKGLEWIGIIYGGSGSTWYASWAKGRFTMSKTSTTVDLKITSPTTEDMATYFCARGRDGGAGGSRNGYSLWGQGTLVTVSS
VL: AYDMTQTPASVEVAVGGTVTIKCQASESIYSGLAWYQQTPGQRPKLLIYAASDLASGVPSRFKGSGSGTEYTLTISGVECADAATYYCQQTWTDGGIDNPFGGGTEVVVKR
Q: How did the “Geomean IC50, HEK-Blue TGF-beta reporter gene assay” value (mature human TGF-beta 1) turn out when B6 was run?
A: Its value is 1.77 not clear (head says nM).

Q: And the “Geomean IC50, HEK-Blue TGF-beta reporter gene assay” value (mature human TGF-beta 2)?
A: The value was 0.3 not clear (head says nM).

Q: What about the “Geomean IC50, HEK-Blue TGF-beta reporter gene assay” value (mature human TGF-beta 3) of the same binder?
A: The value was 24.5 not clear (head says nM).
